The target of series [1] is T1, tyrosinase (endogenous, normal human melanocytes) (Homo sapiens) (UniProt P14679).
T1 sequence: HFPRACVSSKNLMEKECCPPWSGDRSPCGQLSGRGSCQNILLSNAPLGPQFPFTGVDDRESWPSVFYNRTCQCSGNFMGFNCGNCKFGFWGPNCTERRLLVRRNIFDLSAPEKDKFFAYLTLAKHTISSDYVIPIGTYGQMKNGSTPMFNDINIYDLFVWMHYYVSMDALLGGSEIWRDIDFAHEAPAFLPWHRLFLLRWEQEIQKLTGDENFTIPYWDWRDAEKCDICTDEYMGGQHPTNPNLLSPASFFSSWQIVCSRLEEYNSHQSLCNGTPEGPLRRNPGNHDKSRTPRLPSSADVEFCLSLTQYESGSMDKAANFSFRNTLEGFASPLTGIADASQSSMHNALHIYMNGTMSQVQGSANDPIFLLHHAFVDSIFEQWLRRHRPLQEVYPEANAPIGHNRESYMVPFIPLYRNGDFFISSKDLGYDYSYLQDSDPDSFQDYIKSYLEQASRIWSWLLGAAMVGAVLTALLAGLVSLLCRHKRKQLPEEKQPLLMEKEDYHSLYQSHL
Kind of series: cell_activity. The conditions noted are these: 4-200 nM, no dose dependence; 72 h melanocyte treatment, L-DOPA oxidation.

Another series concerns the target T2, tyrosinase (TYR) (Homo sapiens, UniProt P14679 P14679:19-529).
T2 sequence: T1 sequence
In words: SPR; 16 RU at 500 nM and 42 RU at 1 uM tyrosinase on about 1000 RU immobilized biotinylated aptamer; PBS-Mg buffer, 23 C. The conditions noted are these: tags: N-terminal GST tag, Abnova; label: biotin (SPR); predicted long imperfect stem-loop with 5-nt internal loop and 5-nt apical loop. The procedure: All the experiments were carried out on a Biacore 3000 device with PBS—Mg buffer at 23° C. The biotinylated oligonucleotides—heated at 75° C. for 5 minutes, placed on ice for 5 minutes and then placed at room temperature for at least 5 minutes—were immobilized on streptavidin-coated sensor chips (XanTec bioanalytics). The oligonucleotides were injected at 100 nM for 4 minutes at 5 μl/min to reach 800 to 1000 RU.
Tyrosinase and the GST-His control were injected at 500 nM and 1 μM at a rate of 20 μl/min at 23° C. The same injections were carried out with PBS—Mg buffer and tyrosinase storage buffer to subtract the effects of the buffer from the specific sensorgram.
The binding of this candidate, T10.1, and of truncated versions derived from the full-length candidate (Table 1) was investigated by surface plasmon resonance (SPR). About 1000 resonance units (RU) of biotinylated candidate T10.1 were immobilized and tyrosinase was injected at 500 nM or 1 μM. Signals of 16 and 42 RU were detected for 500 nM and 1 μM, respectively, indicating interaction between candidate T10.1 and tyrosinase (FIG. 2).

These results are taken from patent publication US20150329863, “APTAMERS INHIBITING THE ENZYMATIC ACTIVITY OF TYROSINASE” (L V M H RECHERCHE, published 2015).

Take “GCCTGTTGTGAGCCTCCTGTCGAANNNNNNNNNNNNNNNNNNNNNNNNNNNNNNTTGAGCGTTTATTCTTGTCTCCC [round 10 population]”: the activity in series [1] is more than 75 % inhibition.

B1: T10.1 (ssDNA)
DNA: GCCTGTTGTGAGCCTCCTGTCGAACGCAATGGGCGCAGATTGGAAGGCCTAGCATTGAGCGTTTATTCTTGTCTCCC
For B1, in the series with tyrosinase (TYR), the binding result is “binds”.
